Patent US20140274782A1, “AFFINITY REAGENTS AND METHODS FOR DETECTION, PURIFICATION, AND PROTEOMIC ANALYSIS OF METHYLATED PROTEINS” (The Board of Trustees of the Leland Stanford Junior …, priority 2013, published 2014)

T1: G9a and GLP (Homo sapiens, UniProt Q96KQ7+Q9H9B1)
T1 sequence (Q96KQ7 2-1210 limits assumed): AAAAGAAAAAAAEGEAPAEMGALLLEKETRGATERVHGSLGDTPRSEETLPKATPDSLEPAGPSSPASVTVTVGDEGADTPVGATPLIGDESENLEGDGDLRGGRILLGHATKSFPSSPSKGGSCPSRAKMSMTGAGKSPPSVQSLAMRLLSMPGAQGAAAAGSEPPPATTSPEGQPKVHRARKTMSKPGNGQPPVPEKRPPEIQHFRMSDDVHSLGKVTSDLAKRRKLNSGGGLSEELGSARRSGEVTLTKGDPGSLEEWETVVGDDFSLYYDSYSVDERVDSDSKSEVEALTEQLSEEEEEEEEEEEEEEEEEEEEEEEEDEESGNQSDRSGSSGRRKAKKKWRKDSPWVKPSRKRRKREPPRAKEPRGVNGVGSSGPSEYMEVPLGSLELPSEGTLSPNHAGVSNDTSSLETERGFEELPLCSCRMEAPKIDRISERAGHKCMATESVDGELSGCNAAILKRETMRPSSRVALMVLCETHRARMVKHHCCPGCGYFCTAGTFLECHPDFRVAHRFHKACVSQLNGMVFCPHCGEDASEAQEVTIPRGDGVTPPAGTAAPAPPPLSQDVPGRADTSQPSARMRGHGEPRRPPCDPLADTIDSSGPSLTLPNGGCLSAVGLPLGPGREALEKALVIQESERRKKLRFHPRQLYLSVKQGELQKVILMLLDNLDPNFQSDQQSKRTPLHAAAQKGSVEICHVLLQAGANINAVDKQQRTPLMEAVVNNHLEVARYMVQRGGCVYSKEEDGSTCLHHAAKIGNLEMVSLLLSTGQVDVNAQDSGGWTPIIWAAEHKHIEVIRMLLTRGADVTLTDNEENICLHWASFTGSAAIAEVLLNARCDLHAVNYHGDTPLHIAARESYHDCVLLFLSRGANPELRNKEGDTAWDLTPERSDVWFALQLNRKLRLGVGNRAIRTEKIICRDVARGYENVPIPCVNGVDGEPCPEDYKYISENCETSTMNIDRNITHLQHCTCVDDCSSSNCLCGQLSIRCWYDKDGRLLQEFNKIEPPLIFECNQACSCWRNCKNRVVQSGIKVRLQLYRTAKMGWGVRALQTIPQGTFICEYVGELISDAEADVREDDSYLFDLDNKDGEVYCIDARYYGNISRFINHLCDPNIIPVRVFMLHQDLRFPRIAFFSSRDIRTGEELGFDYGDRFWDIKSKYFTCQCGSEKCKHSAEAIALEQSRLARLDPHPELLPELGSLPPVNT
T1 sequence (Q9H9B1 2-1298 limits assumed): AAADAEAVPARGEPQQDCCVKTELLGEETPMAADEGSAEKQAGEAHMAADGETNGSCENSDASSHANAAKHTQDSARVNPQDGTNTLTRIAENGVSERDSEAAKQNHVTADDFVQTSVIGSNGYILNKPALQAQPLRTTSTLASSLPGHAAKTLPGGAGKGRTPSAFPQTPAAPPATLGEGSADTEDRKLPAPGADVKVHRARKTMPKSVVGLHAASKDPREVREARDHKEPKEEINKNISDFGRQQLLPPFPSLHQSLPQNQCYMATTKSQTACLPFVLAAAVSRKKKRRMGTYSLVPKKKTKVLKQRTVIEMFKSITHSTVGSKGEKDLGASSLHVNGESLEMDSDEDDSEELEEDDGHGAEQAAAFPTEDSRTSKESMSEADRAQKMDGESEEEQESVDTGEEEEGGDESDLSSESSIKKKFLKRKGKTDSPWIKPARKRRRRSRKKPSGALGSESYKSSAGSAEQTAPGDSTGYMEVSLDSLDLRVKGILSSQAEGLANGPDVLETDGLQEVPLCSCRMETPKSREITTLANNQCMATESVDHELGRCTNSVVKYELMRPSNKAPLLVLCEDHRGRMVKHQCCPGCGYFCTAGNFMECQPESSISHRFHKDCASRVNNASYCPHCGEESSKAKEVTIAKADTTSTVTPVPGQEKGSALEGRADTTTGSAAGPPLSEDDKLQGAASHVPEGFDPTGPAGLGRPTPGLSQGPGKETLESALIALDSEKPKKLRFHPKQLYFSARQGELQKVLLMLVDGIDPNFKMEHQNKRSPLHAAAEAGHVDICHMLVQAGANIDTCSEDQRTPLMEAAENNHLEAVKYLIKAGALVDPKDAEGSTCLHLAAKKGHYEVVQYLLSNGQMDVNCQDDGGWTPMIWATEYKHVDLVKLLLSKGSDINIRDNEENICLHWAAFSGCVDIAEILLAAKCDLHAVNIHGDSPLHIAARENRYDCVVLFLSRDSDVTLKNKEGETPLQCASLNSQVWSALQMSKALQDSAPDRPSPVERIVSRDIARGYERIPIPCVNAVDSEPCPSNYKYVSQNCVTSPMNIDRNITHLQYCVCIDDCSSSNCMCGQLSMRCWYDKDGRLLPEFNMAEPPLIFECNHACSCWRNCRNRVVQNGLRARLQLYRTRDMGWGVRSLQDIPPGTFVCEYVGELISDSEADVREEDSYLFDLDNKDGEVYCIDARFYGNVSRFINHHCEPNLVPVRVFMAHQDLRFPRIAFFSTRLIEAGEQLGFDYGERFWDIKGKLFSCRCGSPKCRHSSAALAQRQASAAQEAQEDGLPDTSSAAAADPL

B1: THYN1 (protein, UniProt Q9P016 1-225, looked up)
Thymocyte nuclear protein 1: MSRPRKRLAGTSGSDKGLSGKRTKTENSGEALAKVEDSNPQKTSATKNCLKNLSSHWLMKSEPESRLEKGVDVKFSIEDLKAQPKQTTCWDGVRNYQARNFLRAMKLGEEAFFYHSNCKEPGIAGLMKIVKEAYPDHTQFEKNNPHYDPSSKEDNPKWSMVDVQFVRMMKRFIPLAELKSYHQAHKATGGPLKNMVLFTRQRLSIQPLTQEEFDFVLSLEEKEPS
B2: NPM3 (protein, UniProt O75607 2-178, looked up)
Nucleoplasmin-3: AAGTAAALAFLSQESRTRAGGVGGLRVPAPVTMDSFFFGCELSGHTRSFTFKVEEEDDAEHVLALTMLCLTEGAKDECNVVEVVARNHDHQEIAVPVANLKLSCQPMLSLDDFQLQPPVTFRLKSGSGPVRITGRHQIVTMSNDVSEEESEEEEEDSDEEEVELCPILPAKKQGGRP
B3: CGGBP1 (protein, UniProt Q9UFW8 1-167, looked up)
CGG triplet repeat-binding …: MERFVVTAPPARNRSKTALYVTPLDRVTEFGGELHEDGGKLFCTSCNVVLNHVRKSAISDHLKSKTHTKRKAEFEEQNVRKKQRPLTASLQCNSTAQTEKVSVIQDFVKMCLEANIPLEKADHPAVRAFLSRHVKNGGSIPKSDQLRRAYLPDGYENENQLLNSQDC
B4: SRRT (protein, UniProt Q9BXP5 2-876, looked up)
Serrate RNA effector molecule …: GDSDDEYDRRRRDKFRRERSDYDRSRERDERRRGDDWNDREWDRGRERRSRGEYRDYDRNRRERFSPPRHELSPPQKRMRRDWDEHSSDPYHSGYEMPYAGGGGGPTYGPPQPWGHPDVHIMQHHVLPIQARLGSIAEIDLGVPPPVMKTFKEFLLSLDDSVDETEAVKRYNDYKLDFRRQQMQDFFLAHKDEEWFRSKYHPDEVGKRRQEARGALQNRLRVFLSLMETGWFDNLLLDIDKADAIVKMLDAAVIKMEGGTENDLRILEQEEEEEQAGKPGEPSKKEEGRAGAGLGDGERKTNDKDEKKEDGKQAENDSSNDDKTKKSEGDGDKEEKKEDSEKEAKKSSKKRNRKHSGDDSFDEGSVSESESESESGQAEEEKEEAEEALKEKEKPKEEEWEKPKDAAGLECKPRPLHKTCSLFMRNIAPNISRAEIISLCKRYPGFMRVALSEPQPERRFFRRGWVTFDRSVNIKEICWNLQNIRLRECELSPGVNRDLTRRVRNINGITQHKQIVRNDIKLAAKLIHTLDDRTQLWASEPGTPPLPTSLPSQNPILKNITDYLIEEVSAEEEELLGSSGGAPPEEPPKEGNPAEINVERDEKLIKVLDKLLLYLRIVHSLDYYNTCEYPNEDEMPNRCGIIHVRGPMPPNRISHGEVLEWQKTFEEKLTPLLSVRESLSEEEAQKMGRKDPEQEVEKFVTSNTQELGKDKWLCPLSGKKFKGPEFVRKHIFNKHAEKIEEVKKEVAFFNNFLTDAKRPALPEIKPAQPPGPAQILPPGLTPGLPYPHQTPQGLMPYGQPRPPILGYGAGAVRPAVPTGGPPYPHAPYGAGRGNYDAFRGQGGYPGKPRNRMVRGDPRAIVEYRDLDAPDDVDFF
B5: RPRD1A (protein, UniProt Q96P16 2-312, looked up)
Regulation of nuclear …: SAFSEAALEKKLSELSNSQQSVQTLSLWLIHHRKHSRPIVTVWERELRKAKPNRKLTFLYLANDVIQNSKRKGPEFTKDFAPVIVEAFKHVSSETDESCKKHLGRVLSIWEERSVYENDVLEQLKQALYGDKKPRKRTYEQIKVDENENCSSLGSPSEPPQTLDLVRALQDLENAASGDAAVHQRIASLPVEVQEVSLLDKITDKESGERLSKMVEDACMLLADYNGRLAAEIDDRKQLTRMLADFLRCQKEALAEKEHKLEEYKRKLARVSLVRKELRSRIQSLPDLSRLPNVTGSHMHLPFAGDIYSED
B6: MRE11A (protein, UniProt P49959 2-708, looked up)
Double-strand break repair …: STADALDDENTFKILVATDIHLGFMEKDAVRGNDTFVTLDEILRLAQENEVDFILLGGDLFHENKPSRKTLHTCLELLRKYCMGDRPVQFEILSDQSVNFGFSKFPWVNYQDGNLNISIPVFSIHGNHDDPTGADALCALDILSCAGFVNHFGRSMSVEKIDISPVLLQKGSTKIALYGLGSIPDERLYRMFVNKKVTMLRPKEDENSWFNLFVIHQNRSKHGSTNFIPEQFLDDFIDLVIWGHEHECKIAPTKNEQQLFYISQPGSSVVTSLSPGEAVKKHVGLLRIKGRKMNMHKIPLHTVRQFFMEDIVLANHPDIFNPDNPKVTQAIQSFCLEKIEEMLENAERERLGNSHQPEKPLVRLRVDYSGGFEPFSVLRFSQKFVDRVANPKDIIHFFRHREQKEKTGEEINFGKLITKPSEGTTLRVEDLVKQYFQTAEKNVQLSLLTERGMGEAVQEFVDKEEKDAIEELVKYQLEKTQRFLKERHIDALEDKIDEEVRRFRETRQKNTNEEDDEVREAMTRARALRSQSEESASAFSADDLMSIDLAEQMANDSDDSISAATNKGRGRGRGRRGGRGQNSASRGGSQRGRADTGLETSTRSRNSKTAVSASRNMSIIDAFKSTRQQPSRNVTTKNYSEVIEVDESDVEEDIFPTTSKTDQRWSSTSSSKIMSQSQVSKGVDFESSEDDDDDPFMNTSSLRRNRR

Tests used:
3×MBT domain of L3MBTL1 = assay: Triple SILAC pull-down, 3xMBT/3xMBTD355N ratio (cytoplasmic, nuclear and chromatin fractions of 293T cells); assay type: binding, human; conditions: SILAC ratio 3xMBT vs 3xMBTD355N pull-down, 293T cells, all values in log base 2; for 3xMBT/D355N UNC Heavy: experiment with UNC0638 in heavy SILAC media; for 3xMBT/D355N UNC Light: experiment with UNC0638 in light SILAC media;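 as to all read-outs here: proteins quantified with MaxQuant, requiring at least two unique peptides and quantification in both label directions, normalized to the mean of proteins from a digested loading control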
G9a and GLP = biological target: T1, G9a and GLP; assay: Triple SILAC pull-down after UNC0638 treatment of 293T cells, DMSO/UNC0638 ratio of protein captured by 3×MBT; assay type: cell-based; design: cells were treated for 24 hours with UNC0638 at 2.5 μM or DMSO vehicle control; endogenous in cells; host or cells: HEK 293T; conditions: all values in log base 2; for Relative to UNC0638 UNC Heavy / Relative to UNC0638 UNC Light: SILAC ratio DMSO relative to UNC0638, pull-down with 3xMBT; for Relative to UNC0638 UNC Heavy: UNC0638 in heavy SILAC media; for Relative to UNC0638 UNC Light: UNC0638 in light SILAC media; for Relative to UNC0638 Average: average of UNC Light and UNC Heavy experiments;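 as to all read-outs here: mass spectrometry (Q-Exactive) SILAC quantitation, DMSO/UNC0638 ratio computed after subtracting 3×MBTD355N mutant pull-down background, only proteins with at least twofold 3×MBT over mutant signal considered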

Molecule	3xMBT/D355N UNC Heavy (3×MBT domain of L3MBTL1) [log base 2]	3xMBT/D355N UNC Light (3×MBT domain of L3MBTL1) [log base 2]	Relative to UNC0638 UNC Heavy (G9a and GLP) [log base 2]	Relative to UNC0638 UNC Light (G9a and GLP) [log base 2]	Relative to UNC0638 Average (G9a and GLP) [log base 2]
B1	2.42	2.85	−0.01	0.18	0.09
B2	2.70	2.15	0.13	0.03	0.08
B3	2.44	2.49	0.05	0.12	0.09
B4	2.15	2.41	0.02	0.15	0.08
B5	2.16	1.62	0.16	−0.02	0.07
B6	1.35	2.06	0.07	0.07	0.07
